The data set deals with the molecule itself. Description: native MS; online nanoflow strong cation exchange chromatography coupled to nESI native MS (nanoSCX-nMS); salt-mediated pH gradient from 50 mM ammonium acetate pH 5.0 to 250 mM ammonium acetate pH 8.5.

B1: alcohol dehydrogenase (enzyme, UniProt P00330 1-348, looked up)
chain: MSIPETQKGVIFYESHGKLEYKDIPVPKPKANELLINVKYSGVCHTDLHAWHGDWPLPVKLPLVGGHEGAGVVVGMGENVKGWKIGDYAGIKWLNGSCMACEYCELGNESNCPHADLSGYTHDGSFQQYATADAVQAAHIPQGTDLAQVAPILCAGITVYKALKSANLMAGHWVAISGAAGGLGSLAVQYAKAMGYRVLGIDGGEGKEELFRSIGGEVFIDFTKEKDIVGAVLKATDGGAHGVINVSVSEAAIEASTRYVRANGTTVLVGMPAGAKCCSDVFNQVVKSISIVGSYVGNRADTREALDFFARGLVKSPIKVVGLSTLPEIYEKMEKGQIVGRYVVDTSK
notes: alcohol dehydrogenase (ADH), model oligomeric protein called a tetramer; also called ADH
With B1, the “stoichiometry N” value turned out to be 4.

Source of the values: article PMC11154664, “Characterization of Complex Proteoform Mixtures by Online Nanoflow Ion-Exchange Chromatography-Native Mass Spectrometry” (Analytical Chemistry, 2024).
